Where a chain is given by its changes, count along the chain named. Names may count otherwise. Values belong to the binder of their own block, whether it stands above or below them.
Legend:
Assay in all cases: cell-based or functional assay
[1] = target: T1, hIL-12 receptor signaling complex (hIL-12Rβ1 and hIL-12Rβ2) (human, UniProt P42701 24-662; Q99665 24-862)
[2] = target: T1, hIL-12 receptor signaling complex …; remark: listed apart in the source
[3] = target: T1, hIL-12 receptor signaling complex …; remark: listed apart in the source
[4] = target: T1, hIL-12 receptor signaling complex …; remark: listed apart in the source

T1 sequence (Q99665 24-862, chain 2 of 2, other chains not shown): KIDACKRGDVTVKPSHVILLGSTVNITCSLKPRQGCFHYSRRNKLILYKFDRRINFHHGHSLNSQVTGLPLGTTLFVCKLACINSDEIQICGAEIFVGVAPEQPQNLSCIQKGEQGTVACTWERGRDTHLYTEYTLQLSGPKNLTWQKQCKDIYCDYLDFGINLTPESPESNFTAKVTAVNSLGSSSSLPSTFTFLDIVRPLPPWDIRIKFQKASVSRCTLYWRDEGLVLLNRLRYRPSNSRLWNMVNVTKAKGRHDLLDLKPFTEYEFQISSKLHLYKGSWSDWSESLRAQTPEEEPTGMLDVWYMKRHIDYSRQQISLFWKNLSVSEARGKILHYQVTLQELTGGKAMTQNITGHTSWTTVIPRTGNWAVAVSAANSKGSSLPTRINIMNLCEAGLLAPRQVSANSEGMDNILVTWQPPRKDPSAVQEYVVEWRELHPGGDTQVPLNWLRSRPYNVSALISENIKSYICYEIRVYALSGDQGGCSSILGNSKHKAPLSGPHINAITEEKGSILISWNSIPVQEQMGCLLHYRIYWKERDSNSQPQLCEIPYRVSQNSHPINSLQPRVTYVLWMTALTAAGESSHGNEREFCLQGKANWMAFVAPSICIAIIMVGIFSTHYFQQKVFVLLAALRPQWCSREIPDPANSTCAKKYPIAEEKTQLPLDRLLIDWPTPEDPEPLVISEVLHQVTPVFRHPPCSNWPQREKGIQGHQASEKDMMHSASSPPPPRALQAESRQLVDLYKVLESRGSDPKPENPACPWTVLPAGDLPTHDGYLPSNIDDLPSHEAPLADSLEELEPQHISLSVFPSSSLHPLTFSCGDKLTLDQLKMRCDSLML

B1: human IL12 mutein, hIL-12p40 E81A, F82T with hIL-12p35-8X His (ligand)
chain 1: IWELKKDVYVVELDWYPDAPGEMVVLTCDTPEEDGITWTLDQSSEVLGSGKTLTIQVKATGDAGQYTCHKGGEVLSHSLLLLHKKEDGIWSTDILKDQKEPKNKTFLRCEAKNYSGRFTCWWLTTISTDLTFSVKSSRGSSDPQGVTCGAATLSAERVRGDNKEYEYSVECQEDSACPAAEESLPIEVMVDAVHKLKYENYTSSFFIRDIIKPDPPKNLQLKPLKNSRQVEVSWEYPDTWSTPHSYFSLTFCVQVQGKSKREKKDRVFTDKTSATVICRKNASISVRAQDRYYSSSWSEWASVPCS
chain 2: RNLPVATPDPGMFPCLHHSQNLLRAVSNMLQKARQTLEFYPCTSEEIDHEDITKDKTSTVEACLPLELTKNESCLNSRETSFITNGSCLASRKTSFMMALCLSSIYEDLKMYQVEFKTMNAKLLMDPKRQIFLDQNMLAVIDELMQALNFNSETVPQKSSLEEPDFYKTKIKLCILLHAFRIRAVTIDRVMSYLNASGSHHHHHHHH
pSTAT4 [gMFI] EC50, CD8+ T Cells [1]: 4.5 nM
pSTAT4 [gMFI] EC50, CD56hi NK Cells [1]: 10.3 nM
pSTAT4 [gMFI] Emax, CD8+ T Cells [1]: 101000 gMFI
pSTAT4 [gMFI] Emax, CD56hi NK Cells [1]: 29300 gMFI
pSTAT4 [%+] EC50, CD8+ T Cells [2]: 0.87 nM
pSTAT4 [%+] EC50, CD56hi NK Cells [2]: 1.9 nM
pSTAT4 [%+] Emax, CD8+ T Cells [2]: 81.2 %+
pSTAT4 [%+] Emax, CD56hi NK Cells [2]: 88.2 %+

B2: human IL12 mutein, hIL-12p40 E81G, F82A with hIL-12p35-8X His (ligand)
chain 1: B1 chain 1 with A59G, T60A
chain 2: B1 chain 2
IFNy [%+] EC50, CD8+ T Cells [3]: 80 pM
IFNy [%+] EC50, CD56hi NK Cells [3]: 10 pM
IFNy [%+] Emax, CD8+ T Cells [3]: 67.4 %+
IFNy [%+] Emax, CD56hi NK Cells [3]: 93.8 %+
IFNy [gMFI] EC50, CD8+ T Cells [4]: 140 pM
IFNy [gMFI] EC50, CD56hi NK Cells [4]: 290 pM
IFNy [gMFI] Emax, CD8+ T Cells [4]: 10700 gMFI
IFNy [gMFI] Emax, CD56hi NK Cells [4]: 181000 gMFI

B3: human IL12 mutein, hIL-12p40 E81A, F82G with hIL-12p35-8X His (ligand)
chain 1: B1 chain 1 with T60G
chain 2: B1 chain 2
pSTAT4 [gMFI] EC50, CD8+ T Cells [1]: 4.92 nM
pSTAT4 [gMFI] EC50, CD56hi NK Cells [1]: 13.5 nM
pSTAT4 [gMFI] Emax, CD8+ T Cells [1]: 98200 gMFI
pSTAT4 [gMFI] Emax, CD56hi NK Cells [1]: 30300 gMFI
pSTAT4 [%+] EC50, CD8+ T Cells [2]: 1 nM
pSTAT4 [%+] EC50, CD56hi NK Cells [2]: 1.7 nM
pSTAT4 [%+] Emax, CD8+ T Cells [2]: 80.1 %+
pSTAT4 [%+] Emax, CD56hi NK Cells [2]: 88 %+

B5: human IL12 mutein, hIL-12p40 E81A, F82Q with hIL-12p35-8X His (ligand)
chain 1: B1 chain 1 with T60Q
chain 2: B1 chain 2
pSTAT4 [gMFI] EC50, CD8+ T Cells [1]: 4.92 nM
pSTAT4 [gMFI] EC50, CD56hi NK Cells [1]: 9.87 nM
pSTAT4 [gMFI] Emax, CD8+ T Cells [1]: 91400 gMFI
pSTAT4 [gMFI] Emax, CD56hi NK Cells [1]: 25900 gMFI
pSTAT4 [%+] EC50, CD8+ T Cells [2]: 1.08 nM
pSTAT4 [%+] EC50, CD56hi NK Cells [2]: 2.05 nM
pSTAT4 [%+] Emax, CD8+ T Cells [2]: 78.5 %+
pSTAT4 [%+] Emax, CD56hi NK Cells [2]: 85.1 %+

B6: human IL12 wild type (hIL-12p40 wild type with hIL-12p35-8X His) (ligand)
chain 1: B1 chain 1 with A59E, T60F
chain 2: B1 chain 2
pSTAT4 [gMFI] EC50, CD8+ T Cells [1]: 0.03 nM
pSTAT4 [gMFI] EC50, CD56hi NK Cells [1]: 0.06 nM
pSTAT4 [gMFI] Emax, CD8+ T Cells [1]: 121000 gMFI
pSTAT4 [gMFI] Emax, CD56hi NK Cells [1]: 37700 gMFI
pSTAT4 [%+] EC50, CD8+ T Cells [2]: 0.01 nM
pSTAT4 [%+] EC50, CD56hi NK Cells [2]: 0.01 nM
pSTAT4 [%+] Emax, CD8+ T Cells [2]: 85 %+
pSTAT4 [%+] Emax, CD56hi NK Cells [2]: 91.4 %+

Further lines, results first:

pSTAT4 [gMFI] EC50, CD8+ T Cells [1]: 3.12 nM
pSTAT4 [gMFI] EC50, CD56hi NK Cells [1]: 7.21 nM
pSTAT4 [gMFI] Emax, CD8+ T Cells [1]: 100000 gMFI
pSTAT4 [gMFI] Emax, CD56hi NK Cells [1]: 31100 gMFI
pSTAT4 [%+] EC50, CD8+ T Cells [2]: 0.71 nM
pSTAT4 [%+] EC50, CD56hi NK Cells [2]: 1.08 nM
pSTAT4 [%+] Emax, CD8+ T Cells [2]: 80.2 %+
pSTAT4 [%+] Emax, CD56hi NK Cells [2]: 89.1 %+
B4: human IL12 mutein, hIL-12p40 E81A, F82L with hIL-12p35-8X His (ligand)
chain 1: B1 chain 1 with T60L
chain 2: B1 chain 2

pSTAT4 [gMFI] EC50, CD8+ T Cells [1]: 1.22 nM
pSTAT4 [gMFI] EC50, CD56hi NK Cells [1]: 1.82 nM
pSTAT4 [gMFI] Emax, CD8+ T Cells [1]: 111000 gMFI
pSTAT4 [gMFI] Emax, CD56hi NK Cells [1]: 30700 gMFI
pSTAT4 [%+] EC50, CD8+ T Cells [2]: 0.29 nM
pSTAT4 [%+] EC50, CD56hi NK Cells [2]: 0.39 nM
pSTAT4 [%+] Emax, CD8+ T Cells [2]: 84.1 %+
pSTAT4 [%+] Emax, CD56hi NK Cells [2]: 88.4 %+
B7: human IL12 mutein, hIL-12p40 E81A, F82W with hIL-12p35-8X His (ligand)
chain 1: B1 chain 1 with T60W
chain 2: B1 chain 2

pSTAT4 [gMFI] EC50, CD8+ T Cells [1]: 12.7 nM
pSTAT4 [gMFI] EC50, CD56hi NK Cells [1]: 30 nM
pSTAT4 [gMFI] Emax, CD8+ T Cells [1]: 87500 gMFI
pSTAT4 [gMFI] Emax, CD56hi NK Cells [1]: 27000 gMFI
pSTAT4 [%+] EC50, CD8+ T Cells [2]: 3.4 nM
pSTAT4 [%+] EC50, CD56hi NK Cells [2]: 5.08 nM
pSTAT4 [%+] Emax, CD8+ T Cells [2]: 79 %+
pSTAT4 [%+] Emax, CD56hi NK Cells [2]: 85.2 %+
B8: human IL12 mutein, hIL-12p40 E81A, F82C with hIL-12p35-8X His (ligand)
chain 1: B1 chain 1 with T60C
chain 2: B1 chain 2

pSTAT4 [gMFI] EC50, CD8+ T Cells [1]: 4.33 nM
pSTAT4 [gMFI] EC50, CD56hi NK Cells [1]: 17.2 nM
pSTAT4 [gMFI] Emax, CD8+ T Cells [1]: 102000 gMFI
pSTAT4 [gMFI] Emax, CD56hi NK Cells [1]: 36800 gMFI
pSTAT4 [%+] EC50, CD8+ T Cells [2]: 0.76 nM
pSTAT4 [%+] EC50, CD56hi NK Cells [2]: 1.15 nM
pSTAT4 [%+] Emax, CD8+ T Cells [2]: 80.9 %+
pSTAT4 [%+] Emax, CD56hi NK Cells [2]: 89.3 %+
B9: human IL12 mutein, hIL-12p40 E81A, F82V with hIL-12p35-8X His (ligand)
chain 1: B1 chain 1 with T60V
chain 2: B1 chain 2

pSTAT4 [gMFI] EC50, CD8+ T Cells [1]: 0.37 nM
pSTAT4 [gMFI] EC50, CD56hi NK Cells [1]: 1.19 nM
pSTAT4 [gMFI] Emax, CD8+ T Cells [1]: 108000 gMFI
pSTAT4 [gMFI] Emax, CD56hi NK Cells [1]: 35700 gMFI
pSTAT4 [%+] EC50, CD8+ T Cells [2]: 0.09 nM
pSTAT4 [%+] EC50, CD56hi NK Cells [2]: 0.19 nM
pSTAT4 [%+] Emax, CD8+ T Cells [2]: 83.5 %+
pSTAT4 [%+] Emax, CD56hi NK Cells [2]: 91.7 %+
B10: human IL12 mutein, hIL-12p40 E81A, F82Y with hIL-12p35-8X His (ligand)
chain 1: B1 chain 1 with T60Y
chain 2: B1 chain 2
